# Reference: publication PMC9268357 (Science (New York, N.y.), 2021)
# B1: S2P6 monoclonal antibody (antibody, V domains shown)
# VH: EVQLVQSGAEVKKPGASVKVSCKASGYTFTSQYMHWVRQAPGQGLEWIGIINPSGVHTSYAQKFQGRVTLTRDTSTSTLYMELSSLRSEDTAVYYCARGSPKGAFDYWGQGTLVTVSS
# VL: not shown
# notes: also called S2P6 mAb; S2P6 IgG; copies: 2 + 2
# B2: S2P6 Fab fragment (Fab, V domains shown)
# VH: B1 VH
# VL: not shown
# Assays:
# [1] = target: T1, prefusion-stabilized SARS-CoV S ectodomain trimer (SARS-CoV, isolate , UniProt P59594, stabilised); experiment: cell-based or functional assay
# [2] = target: T2, prefusion-stabilized MERS-CoV S ectodomain trimer (MERS-CoV, isolate not shown; stand-in …, UniProt K9N5Q8, stabilised); experiment: cell-based or functional assay
# [3] = target: T1, prefusion-stabilized SARS-CoV S …; experiment: SPR; S2P6 Fab fragment and S glycoproteins (fig. S1, G and H); conditions: both partners purified
# [4] = target: T2, prefusion-stabilized MERS-CoV S …; experiment: as above; conditions: both partners purified
Binder,"neutralization of VSV pseudotyped with SARS-CoV S, IC50 [1]","neutralization of VSV pseudotyped with MERS-CoV S, IC50 [2]",Kd [3],Kd [4]
B1,2.4 µg/mL,17.1 µg/mL,,
B2,,,7 nM,12 nM
